Test [1] has as its target T1, StRIP3 (Homo sapiens, UniProt Q6IQ26).
T1 chain: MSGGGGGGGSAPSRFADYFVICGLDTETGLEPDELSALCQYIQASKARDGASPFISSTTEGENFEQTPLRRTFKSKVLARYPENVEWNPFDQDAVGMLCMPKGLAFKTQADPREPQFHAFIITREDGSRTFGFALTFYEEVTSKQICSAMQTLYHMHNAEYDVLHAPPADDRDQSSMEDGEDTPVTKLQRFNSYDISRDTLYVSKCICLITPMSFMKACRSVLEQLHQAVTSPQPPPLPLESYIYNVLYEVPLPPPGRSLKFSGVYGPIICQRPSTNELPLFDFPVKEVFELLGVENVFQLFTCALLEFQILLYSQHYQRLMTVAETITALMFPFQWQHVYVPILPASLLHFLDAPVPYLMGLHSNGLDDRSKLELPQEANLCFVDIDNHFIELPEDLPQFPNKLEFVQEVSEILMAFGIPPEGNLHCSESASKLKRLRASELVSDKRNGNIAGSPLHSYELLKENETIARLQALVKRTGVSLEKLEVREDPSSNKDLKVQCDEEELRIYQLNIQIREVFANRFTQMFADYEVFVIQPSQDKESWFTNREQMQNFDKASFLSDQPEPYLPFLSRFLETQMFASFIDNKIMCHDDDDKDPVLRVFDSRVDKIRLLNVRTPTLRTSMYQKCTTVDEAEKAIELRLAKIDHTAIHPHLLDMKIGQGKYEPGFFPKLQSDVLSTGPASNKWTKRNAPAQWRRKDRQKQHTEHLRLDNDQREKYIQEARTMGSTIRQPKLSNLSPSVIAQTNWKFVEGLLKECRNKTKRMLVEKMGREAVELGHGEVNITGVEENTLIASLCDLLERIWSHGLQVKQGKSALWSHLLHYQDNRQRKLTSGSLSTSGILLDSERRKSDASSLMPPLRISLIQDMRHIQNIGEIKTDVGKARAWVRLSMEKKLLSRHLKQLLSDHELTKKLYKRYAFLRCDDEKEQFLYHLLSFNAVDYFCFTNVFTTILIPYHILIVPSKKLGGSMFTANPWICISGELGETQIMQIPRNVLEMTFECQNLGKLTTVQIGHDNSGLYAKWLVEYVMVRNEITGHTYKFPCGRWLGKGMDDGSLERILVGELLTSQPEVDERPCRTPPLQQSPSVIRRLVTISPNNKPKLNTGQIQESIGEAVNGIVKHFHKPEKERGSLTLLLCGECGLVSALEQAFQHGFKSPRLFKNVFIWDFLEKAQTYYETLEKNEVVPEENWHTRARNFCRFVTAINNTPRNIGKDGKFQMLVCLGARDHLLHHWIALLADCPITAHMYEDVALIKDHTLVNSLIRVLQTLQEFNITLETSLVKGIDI
Description: fluorescence polarization. On the technique in general: Polarisation of emitted light reports the rotation of a fluorescent probe.

Test [2] has as its target T1, StRIP3. Description: competition fluorescence polarization.
The target of the next test is T2, peptide 21 (Homo sapiens, UniProt Q6IQ26).
T2 chain: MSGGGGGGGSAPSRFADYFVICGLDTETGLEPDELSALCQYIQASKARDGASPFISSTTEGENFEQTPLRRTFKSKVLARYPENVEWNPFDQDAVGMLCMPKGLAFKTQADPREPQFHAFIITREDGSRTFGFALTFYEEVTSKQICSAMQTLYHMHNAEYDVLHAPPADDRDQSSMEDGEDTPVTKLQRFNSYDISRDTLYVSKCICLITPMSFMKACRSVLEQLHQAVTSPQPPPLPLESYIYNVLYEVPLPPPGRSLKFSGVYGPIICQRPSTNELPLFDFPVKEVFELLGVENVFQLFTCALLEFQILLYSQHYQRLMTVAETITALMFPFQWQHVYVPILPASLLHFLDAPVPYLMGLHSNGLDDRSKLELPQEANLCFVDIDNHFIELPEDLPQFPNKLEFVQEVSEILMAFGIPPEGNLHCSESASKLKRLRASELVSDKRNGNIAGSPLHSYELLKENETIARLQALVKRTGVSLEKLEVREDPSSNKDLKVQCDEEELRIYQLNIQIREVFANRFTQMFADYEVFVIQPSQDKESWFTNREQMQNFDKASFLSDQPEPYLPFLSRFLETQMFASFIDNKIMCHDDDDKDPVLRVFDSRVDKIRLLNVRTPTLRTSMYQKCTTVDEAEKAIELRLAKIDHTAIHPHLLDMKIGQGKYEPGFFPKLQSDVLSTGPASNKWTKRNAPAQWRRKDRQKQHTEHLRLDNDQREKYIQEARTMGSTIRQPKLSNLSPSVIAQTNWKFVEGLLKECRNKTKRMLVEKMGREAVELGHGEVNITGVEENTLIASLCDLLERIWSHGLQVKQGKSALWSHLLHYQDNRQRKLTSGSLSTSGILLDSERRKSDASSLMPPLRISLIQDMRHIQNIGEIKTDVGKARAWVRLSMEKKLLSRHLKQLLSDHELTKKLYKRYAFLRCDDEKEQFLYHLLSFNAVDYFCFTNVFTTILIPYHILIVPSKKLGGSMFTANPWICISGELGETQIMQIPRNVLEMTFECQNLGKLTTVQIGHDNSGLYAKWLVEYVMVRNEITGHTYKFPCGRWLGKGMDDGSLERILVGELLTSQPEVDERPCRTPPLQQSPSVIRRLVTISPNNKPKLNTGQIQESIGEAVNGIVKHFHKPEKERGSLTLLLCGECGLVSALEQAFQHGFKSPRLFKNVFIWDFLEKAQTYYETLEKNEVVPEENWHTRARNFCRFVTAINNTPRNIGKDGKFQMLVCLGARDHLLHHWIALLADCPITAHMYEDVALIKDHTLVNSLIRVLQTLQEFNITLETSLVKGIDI
Description: fluorescence polarization.

Test [3] deals with T3, peptide 25 (Homo sapiens, UniProt Q6IQ26).
T3 chain: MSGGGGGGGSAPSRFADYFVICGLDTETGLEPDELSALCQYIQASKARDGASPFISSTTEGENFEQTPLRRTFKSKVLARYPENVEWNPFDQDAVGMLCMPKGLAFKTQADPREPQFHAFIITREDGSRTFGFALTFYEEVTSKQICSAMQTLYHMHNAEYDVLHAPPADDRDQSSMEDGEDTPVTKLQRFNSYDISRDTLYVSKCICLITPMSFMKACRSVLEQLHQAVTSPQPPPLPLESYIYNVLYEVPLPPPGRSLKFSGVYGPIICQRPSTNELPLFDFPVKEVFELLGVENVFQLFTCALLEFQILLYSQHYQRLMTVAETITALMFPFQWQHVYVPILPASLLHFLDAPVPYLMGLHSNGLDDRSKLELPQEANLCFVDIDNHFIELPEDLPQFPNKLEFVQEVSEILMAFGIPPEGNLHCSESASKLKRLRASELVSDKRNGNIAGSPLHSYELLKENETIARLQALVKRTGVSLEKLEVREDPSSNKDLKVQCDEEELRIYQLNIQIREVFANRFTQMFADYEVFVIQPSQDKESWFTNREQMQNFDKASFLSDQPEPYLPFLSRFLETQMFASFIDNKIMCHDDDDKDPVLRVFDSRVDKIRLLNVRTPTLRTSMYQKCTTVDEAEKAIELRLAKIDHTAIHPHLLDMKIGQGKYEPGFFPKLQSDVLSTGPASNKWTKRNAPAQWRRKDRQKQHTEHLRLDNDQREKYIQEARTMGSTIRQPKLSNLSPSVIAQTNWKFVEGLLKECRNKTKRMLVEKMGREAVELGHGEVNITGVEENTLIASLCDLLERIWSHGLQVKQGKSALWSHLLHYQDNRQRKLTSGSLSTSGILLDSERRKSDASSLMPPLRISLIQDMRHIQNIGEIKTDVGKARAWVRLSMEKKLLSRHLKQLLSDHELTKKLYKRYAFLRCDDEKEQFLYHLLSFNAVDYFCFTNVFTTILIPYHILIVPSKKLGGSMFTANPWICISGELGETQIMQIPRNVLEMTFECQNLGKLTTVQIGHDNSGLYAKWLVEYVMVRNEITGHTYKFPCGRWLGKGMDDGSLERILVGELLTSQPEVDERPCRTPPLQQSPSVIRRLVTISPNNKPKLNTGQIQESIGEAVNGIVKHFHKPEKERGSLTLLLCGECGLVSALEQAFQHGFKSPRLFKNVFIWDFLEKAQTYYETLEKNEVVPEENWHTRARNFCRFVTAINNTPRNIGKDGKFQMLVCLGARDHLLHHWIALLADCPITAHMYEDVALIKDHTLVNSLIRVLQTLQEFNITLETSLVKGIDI
In words: microscale thermophoresis (fluorescence intensity). On the technique in general: Microscale thermophoresis detects binding through changes in fluorescence in a small temperature gradient.

The target of test [4] is T3, peptide 25. In words: fluorescence polarization.

B1: Rab8a 6-176 (protein)
chain: DYLFKLLLIGDSGVGKTCVLFRFSEDAFNSTFISTIGIDFKIRTIELDGKRIKLQIWDTAGQERFRTITTAYYRGAMGIMLVYDITNEKSFDNIRNWIRNIEEHASADVEKMILGNKCDVNDKRQVSKERGEKLALDYGIKFMETSAKANINVENAFFTLARDIKAKMDKK
modifications: GppNHp-bound Rab8a; i,i+4 olefin hydrocarbon-stapled peptide, fluorescein-PEG label
B1 gave a Kd in the test with StRIP3 [1] of 20.7 µM.

B2: Rab8a 6-176 (protein)
chain: DYLFKLLLIGDSGVGKTCVLFRFSEDAFNSTFISTIGIDFKIRTIELDGKRIKLQIWDTAGQERFRTITTAYYRGAMGIMLVYDITNEKSFDNIRNWIRNIEEHASADVEKMILGNKCDVNDKRQVSKERGEKLALDYGIKFMETSAKANINVENAFFTLARDIKAKMDKK
modifications: GppNHp-bound Rab8a; acetylated i,i+4 olefin hydrocarbon-stapled peptide
Consider B2, for which the IC50 in the test with StRIP3 [2] was 33 µM.

B3: Rab8a 6-176 (protein)
chain: DYLFKLLLIGDSGVGKTCVLFRFSEDAFNSTFISTIGIDFKIRTIELDGKRIKLQIWDTAGQERFRTITTAYYRGAMGIMLVYDITNEKSFDNIRNWIRNIEEHASADVEKMILGNKCDVNDKRQVSKERGEKLALDYGIKFMETSAKANINVENAFFTLARDIKAKMDKK
modifications: GppNHp-bound Rab8a; dibrominated olefin macrocyclic StRIP3 derivative, fluorescein-PEG label
Consider B3, for which binding with peptide 21 was characterised by a dissociation constant (Kd) of 10.7 µM.

B4: Rab8a 6-176 (protein)
chain: DYLFKLLLIGDSGVGKTCVLFRFSEDAFNSTFISTIGIDFKIRTIELDGKRIKLQIWDTAGQERFRTITTAYYRGAMGIMLVYDITNEKSFDNIRNWIRNIEEHASADVEKMILGNKCDVNDKRQVSKERGEKLALDYGIKFMETSAKANINVENAFFTLARDIKAKMDKK
modifications: GppNHp-bound Rab8a; bicyclic olefin/alkyne crosslinked StRIP3 derivative, fluorescein-PEG label
Regarding B4, the dissociation constant Kd with peptide 25 [3] worked out at 11 µM; in the test with peptide 25 [4], 6.6 µM.

Broadly, the Kd is the equilibrium constant for the complex coming apart. A low value points to tighter binding. As a reminder, the IC50 is the point on the concentration scale where inhibition reaches its midpoint. Low readings indicate greater potency, high ones weaker potency.

Source of the values: PMC4834642, “Orthogonal ring-closing alkyne and olefin metathesis for the synthesis of small GTPase-targeting bicyclic peptides” (Nature Communications, 2016).
